Our source for the percent of Vangl2 depleted by IP of Vangl2-Long and stoichiometry N (Vangl2 per Vangl2-Long) values is paper PMC11065751.

Several values for one entry are separate records, joined by “and”; a condition that tells them apart may be missing. Identical values can stand only once.

Test [1] deals with Vangl2-Long (70 kD isoform), endogenous mouse (mouse (endogenous in IMCD3)). The test is described as follows: co-IP; serial IP of endogenous proteins from IMCD3 cell extracts: two successive rounds of IP with N-VGL2 pAb, then IP of the Vangl2-Long depleted lysate with a Vangl1-specific antibody.
Test [2] shares this target. The test is described as follows: co-IP; endogenous proteins; SKBR7 or IMCD3 cell lysates (50 mM Hepes-NaOH pH 8, 150 mM NaCl, 10% glycerol, 2 mM EDTA, 0.5% NP-40) incubated overnight at 4 °C with N-VGL2 pAb (VANGL2-Long specific) or mAb 36E3, protein A or G beads; blots with mAb 36E3 and mAb 19D5; 62 kD and 70 kD bands quantified for the ratio.

B1: Vangl2 (canonical 62 kD isoform), endogenous mouse (natural protein)
chain: MDTESQYSGYSYKSGHSRSSRKHRDRRDRHRSKSRDGSRGDKSVTIQAPGEPLLDNESTRGDERDDNWGETTTVVTGTSEHSISHDDLTRIAKDMEDSVPLDCSRHLGVAAGAILALLSFLTPLAFLLLPPLLWREELEPCGTACEGLFISVAFKLLILLLGSWALFFRRPKASLPRVFVLRALLMVLVFLLVISYWLFYGVRILDARERSYQGVVQFAVSLVDALLFVHYLAVVLLELRQLQPQFTLKVVRSTDGASRFYNVGHLSIQRVAVWILEKYYHDFPVYNPALLNLPKSVLAKKVSGFKVYSLGEENSTNNSTGQSRAVIAAAARRRDNSHNEYYYEEAEHERRVRKRRARLVVAVEEAFTHIKRLQEEEQKNPREVMDPREAAQAIFASMARAMQKYLRTTKQQPYHTMESILQHLEFCITHDMTPKAFLERYLAAGPTIQYHKERWLAKQWTLVSEEPVTNGLKDGIVFLLKRQDFSLVVSTKKVPFFKLSEEFVDPKSHKFVMRLQSETSV
For the molecule B1, the percent of Vangl2 depleted by IP of Vangl2-Long in test [1] was found to be 50%. For the same molecule, in test [2], the stoichiometry N (Vangl2 per Vangl2-Long) is 3 and 4.
